By Kd is commonly meant the equilibrium constant for the complex coming apart. A high value points to a looser complex.

To fix the notation:
T1: MBP fusion of MKK5(PB1-D) (construct E, 16–130) (human, UniProt Q13163 16-130)
T1 sequence: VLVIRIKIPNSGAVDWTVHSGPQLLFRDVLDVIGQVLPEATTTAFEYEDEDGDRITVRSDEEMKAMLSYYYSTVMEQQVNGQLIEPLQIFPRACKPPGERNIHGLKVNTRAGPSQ

B1: pepMEF2 (labeled MEF2A D-motif peptide) (peptide)
peptide: tetramethylrhodamin-SRKPDLRVVIPPS
B2: pepMKK5 (peptide with the linear D-motif of MKK5) (peptide)
peptide: ASKPPGERNIHGLKVNTRA
B3: MBP fusion of MKK5 construct B (113–448) (domain or fragment, human, UniProt Q13163 113-448, looked up)
chain: GERNIHGLKVNTRAGPSQHSSPAVSDSLPSNSLKKSSAELKKILANGQMNEQDIRYRDTLGHGNGGTVYKAYHVPSGKILAVKVILLDITLELQKQIMSELEILYKCDSSYIIGFYGAFFVENRISICTEFMDGGSLDVYRKMPEHVLGRIAVAVVKGLTYLWSLKILHRDVKPSNMLVNTRGQVKLCDFGVSTQLVNSIAKTYVGTNAYMAPERISGEQYGIHSDVWSLGISFMELALGRFPYPQIQKNQGSLMPLQLLQCIVDEDSPVLPVGEFSEPFVHFITQCMRKQPKERPAPEELMGHPFIVQFNDGNAAVVSMWVCRALEERRSQQGPP
B4: GST-MEKK3(PB1) (MEKK3 PB1 domain, residues 42–126) (domain or fragment)
chain: QSDVRIKFEHNGERRIIAFSRPVKYEDVEHKVTTVFGQPLDLHYMNNELSILLKNQDDLDKAIDILDRSSSMKSLRILLLSQDRN
B5: ERK5 MAPK construct containing the N-terminal region of ERK5-(1–431) (domain or fragment)
chain: MAEPLKEEDGEDGSAEPPGPVKAEPAHTAASVAAKNLALLKARSFDVTFDVGDEYEIIETIGNGAYGVVSSARRRLTGQQVAIKKIPNAFDVVTNAKRTLRELKILKHFKHDNIIAIKDILRPTVPYGEFKSVYVVLDLMESDLHQIIHSSQPLTLEHVRYFLYQLLRGLKYMHSAQVIHRDLKPSNLLVNENCELKIGDFGMARGLCTSPAEHQYFMTEYVATRWYRAPELMLSLHEYTQAIDLWSVGCIFGEMLARRQLFPGKNYVHQLQLIMMVLGTPSPAVIQAVGAERVRAYIQSLPPRQPVPWETVYPGADRQALSLLGRMLRFEPSARISAAAALRHPFLAKYHDPDDEPDCAPPFDFAFDREALTRERIKEAIVAEIEDFHARREGIRQQIRFQPSLQPVASEPGCPDVEMPSPWAPSGDCAM

For assay [1], the target named is B5. The assay is described as follows: fluorescence polarisation.
In another assay the target is ERK2 (human, UniProt P28482 1-360). In words: fluorescence polarisation. A general note: Polarisation of emitted light reports the rotation of a fluorescent probe.
Assay [2] deals with B5. In words: fluorescence polarisation. The source holds these as a separate data set.
Assay [3] deals with B5. The assay is described as follows: pull-down.
The target of assay [4] is T1, MBP fusion of MKK5(PB1-D) (construct E, …). The assay is described as follows: pull-down.
For assay [5], the target named is Full-length MKK5 (MKK5_FL) (human, UniProt Q13163 1-448). In words: fluorescence polarisation.

No end group written: not given here.

Chain of ERK2 (P28482 whole entry): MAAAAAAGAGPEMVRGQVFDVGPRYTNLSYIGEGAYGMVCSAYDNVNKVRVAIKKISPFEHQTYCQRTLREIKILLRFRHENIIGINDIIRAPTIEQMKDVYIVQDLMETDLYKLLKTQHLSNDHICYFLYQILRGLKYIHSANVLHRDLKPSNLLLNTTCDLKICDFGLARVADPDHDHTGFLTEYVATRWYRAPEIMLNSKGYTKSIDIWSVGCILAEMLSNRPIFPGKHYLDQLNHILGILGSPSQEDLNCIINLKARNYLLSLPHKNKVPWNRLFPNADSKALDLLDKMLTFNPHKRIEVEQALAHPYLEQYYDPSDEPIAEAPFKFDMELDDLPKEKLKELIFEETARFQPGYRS

With B1, the binding result in assay [1] is “binds”.
As to B2, the dissociation constant Kd with ERK2 is above 100 µM; in assay [2], 4.2 µM.
With B3, the binding result in assay [3] is recorded as “binds”.
Consider B4, for which the binding result in assay [4] is “binds”.
Consider B5, for which, in assay [5], the Kd was below 0.1 µM.

The values above are taken from paper PMC3605678 (The Journal of Biological Chemistry, 2013).
